# Target: HB36.4 I58E displayed on the yeast surface
# Assay: flow cytometry on cells
substance,measurement,value
"A/Vietnam/1203/2004 (H5N1) hemagglutinin, biotinylated (natural protein)",net change in specificity (H1 over H5) against HB36.4,> 30 fold

# From paper PMC3638900
